Laboratory results from PMC7470945, “DNA backbone interactions impact the sequence specificity of DNA sulfur-binding domains: revelations from structural analyses”.

What was measured:
Assay in all cases: fluorescence polarization; FP: 20 mM Tris-HCl pH 8.0, 50 mM NaCl, 5% glycerol, 1 mM DTT, 5 nM probe, room temperature; EMSA: 20 mM Tris-HCl pH 8.0, 100 mM NaCl, 5% glycerol, room temperature, protein 4x DNA
SBDSco (SBD of ScoMcrA) = target: T1, SBDSco (SBD of ScoMcrA) (Streptomyces coelicolor, UniProt Q9L0M9 90-250); details: protein: recombinant; tags: N-terminal 6xHis (pET28a); label: 5'-FAM on one strand (FP); blunt
T1 sequence: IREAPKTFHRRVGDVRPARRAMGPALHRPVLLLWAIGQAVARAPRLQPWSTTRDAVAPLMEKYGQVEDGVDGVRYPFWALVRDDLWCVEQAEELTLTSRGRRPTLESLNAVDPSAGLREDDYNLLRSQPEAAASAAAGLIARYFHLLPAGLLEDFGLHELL

SBDSpr (SBD of SprMcrA) = SBDSpr (SBD of SprMcrA) (Streptomyces pristinaespiralis, UniProt A0A0M4DML1 1-165); details: protein: recombinant, tags: N-terminal 6xHis (pET28a), blunt; for Kd: label: 5'-FAM on one strand (FP); for binding result: label: 5'-FAM on one strand
SBDSco E156L = target: T2, SBDSco E156L (Streptomyces coelicolor, UniProt Q9L0M9 90-250, E156L); details: protein: recombinant; tags: 6xHis; label: 5'-FAM on one strand (FP); blunt
T2 sequence: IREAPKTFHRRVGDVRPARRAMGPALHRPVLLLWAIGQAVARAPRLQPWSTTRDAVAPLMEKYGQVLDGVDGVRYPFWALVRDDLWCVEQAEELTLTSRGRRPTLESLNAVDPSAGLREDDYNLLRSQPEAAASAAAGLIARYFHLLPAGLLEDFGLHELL

SBDSco E156D = target: T3, SBDSco E156D (Streptomyces coelicolor, UniProt Q9L0M9 90-250, E156D); details: protein: recombinant; tags: 6xHis; label: 5'-FAM on one strand (FP); blunt
T3 sequence: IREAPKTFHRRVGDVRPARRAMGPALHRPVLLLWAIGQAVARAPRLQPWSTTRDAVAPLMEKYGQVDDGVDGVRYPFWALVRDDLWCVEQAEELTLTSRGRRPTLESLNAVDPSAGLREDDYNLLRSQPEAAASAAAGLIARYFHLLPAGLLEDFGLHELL

SBDSco E156K = target: T4, SBDSco E156K (Streptomyces coelicolor, UniProt Q9L0M9 90-250, E156K); details: protein: recombinant; tags: 6xHis; label: 5'-FAM on one strand (FP); blunt
T4 sequence: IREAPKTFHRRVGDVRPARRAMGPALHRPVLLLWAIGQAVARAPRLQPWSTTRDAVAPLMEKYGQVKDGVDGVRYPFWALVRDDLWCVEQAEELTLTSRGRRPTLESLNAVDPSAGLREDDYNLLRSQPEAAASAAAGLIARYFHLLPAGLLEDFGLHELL

SBDSco E156R/D157R = target: T5, SBDSco E156R/D157R (Streptomyces coelicolor, UniProt Q9L0M9 90-250, E156R;D157R); details: protein: recombinant; tags: 6xHis; label: 5'-FAM on one strand (FP); blunt
T5 sequence: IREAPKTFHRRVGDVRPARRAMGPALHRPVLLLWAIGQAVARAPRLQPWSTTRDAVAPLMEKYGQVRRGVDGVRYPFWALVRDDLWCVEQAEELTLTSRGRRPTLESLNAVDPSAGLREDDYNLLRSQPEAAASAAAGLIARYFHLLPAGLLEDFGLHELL

SBDSco E156R = target: T6, SBDSco E156R (Streptomyces coelicolor, UniProt Q9L0M9 90-250, E156R); details: protein: recombinant; tags: 6xHis; label: 5'-FAM on one strand (FP); blunt
T6 sequence: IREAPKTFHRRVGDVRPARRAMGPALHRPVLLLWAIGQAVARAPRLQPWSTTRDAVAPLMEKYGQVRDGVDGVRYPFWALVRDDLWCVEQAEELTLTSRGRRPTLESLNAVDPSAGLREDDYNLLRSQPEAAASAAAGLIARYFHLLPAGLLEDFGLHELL

SBDSco E156Q = target: T7, SBDSco E156Q (Streptomyces coelicolor, UniProt Q9L0M9 90-250, E156Q); details: protein: recombinant; tags: 6xHis; label: 5'-FAM on one strand (FP); blunt
T7 sequence: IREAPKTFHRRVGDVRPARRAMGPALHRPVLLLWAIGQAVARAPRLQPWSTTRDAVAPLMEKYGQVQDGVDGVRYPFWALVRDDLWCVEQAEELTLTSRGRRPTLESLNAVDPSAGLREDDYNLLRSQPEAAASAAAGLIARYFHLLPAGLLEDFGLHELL

B1: PT-GATC-10 RP (hemi-PT) (dsDNA)
DNA 1: GATGATCCTA
DNA 2: TAGGATCATC
modifications: RP phosphorothioate between G4 and A5 of strand 1
- Kd (SBDSco (SBD of ScoMcrA)): 1090 ± 58 nM
- Kd (SBDSpr (SBD of SprMcrA)): 38 ± 8 nM
- Kd (SBDSco E156L): 791 ± 42 nM
- Kd (SBDSco E156D): 1320 ± 99 nM
- Kd (SBDSco E156K): 370 ± 14 nM
- Kd (SBDSco E156R/D157R): 192 ± 12 nM
- Kd (SBDSco E156R): 346 ± 17 nM
- Kd (SBDSco E156Q): 1020 ± 49 nM

B2: PT-GATC-10 SP (hemi-PT) (dsDNA)
DNA 1: GATGATCCTA
DNA 2: TAGGATCATC
modifications: SP phosphorothioate between G4 and A5 of strand 1
- binding result (SBDSpr (SBD of SprMcrA)): no binding

B3: PT-CCA-10 SP (hemi-PT) (dsDNA)
DNA 1: GAACCCAAGC
DNA 2: GCTTGGGTTC
modifications: SP phosphorothioate between C5 and C6 of strand 1
- binding result (SBDSpr (SBD of SprMcrA)): no binding

B4: PT-GAAC-10 RP (hemi-PT) (dsDNA)
DNA 1: GGCGAACGTG
DNA 2: CACGTTCGCC
modifications: RP phosphorothioate between G4 and A5 of strand 1
- Kd (SBDSco (SBD of ScoMcrA)): 567 ± 37 nM
- Kd (SBDSpr (SBD of SprMcrA)): 95 ± 25 nM
- Kd (SBDSco E156L): 499 ± 37 nM
- Kd (SBDSco E156D): 846 ± 74 nM
- Kd (SBDSco E156K): 297 ± 19 nM
- Kd (SBDSco E156R/D157R): 183 ± 9 nM
- Kd (SBDSco E156R): 267 ± 15 nM
- Kd (SBDSco E156Q): 618 ± 43 nM

B5: PT-CCA-10 RP (hemi-PT) (dsDNA)
DNA 1: GAACCCAAGC
DNA 2: GCTTGGGTTC
modifications: RP phosphorothioate between C5 and C6 of strand 1
- binding result (SBDSpr (SBD of SprMcrA)): no binding
